The record followed here is article PMC9864249.

As usually defined, the Kd is a measure of binding affinity in units of concentration. Read a low Kd as a tighter complex.

The target of assay [1] is GST-ZZUD (ZU5-ZU5-UPA-DD spectrin-binding domain of erythrocyte ankyrin, wild type) (human) (UniProt P16157). Kind of assay: pull-down; sedimentation assay: GST-ZZUD or GST-ZZUDL1340P adsorbed on Glutathione Sepharose 4B; His(6)GFP–AnkBD 0–2 µM; 50 mM Tris–HCl, 150 mM NaCl, 2 mM DTT, pH 7.5; 30 min, room temperature; eluted with 75 mM GSH, bound GFP read by fluorescence; bare resin subtracted; one site-specific binding fit.

The target of assay [2] is His(6)GFP–AnkBD (ankyrin-binding domain of erythrocyte β-spectrin, repeats 14–15) (human) (UniProt P11277). Nature of the assay: BLI; Octet K2; His(6)GFP–AnkBD loaded on Ni2+-NTA biosensor tips; GST-ZZUD or GST-ZZUDL1340P 0–2.5 µM in solution; 30 °C; 50 mM Tris–HCl, 150 mM NaCl, 2 mM DTT, pH 7.5; association 300 s, dissociation 300 s; curves compared by amplitude. A general note: BLI is a label-free optical method that tracks binding on a fibre tip over time.
Sequence of UniProt P11277 (P11277 whole entry, the tested form may be a part): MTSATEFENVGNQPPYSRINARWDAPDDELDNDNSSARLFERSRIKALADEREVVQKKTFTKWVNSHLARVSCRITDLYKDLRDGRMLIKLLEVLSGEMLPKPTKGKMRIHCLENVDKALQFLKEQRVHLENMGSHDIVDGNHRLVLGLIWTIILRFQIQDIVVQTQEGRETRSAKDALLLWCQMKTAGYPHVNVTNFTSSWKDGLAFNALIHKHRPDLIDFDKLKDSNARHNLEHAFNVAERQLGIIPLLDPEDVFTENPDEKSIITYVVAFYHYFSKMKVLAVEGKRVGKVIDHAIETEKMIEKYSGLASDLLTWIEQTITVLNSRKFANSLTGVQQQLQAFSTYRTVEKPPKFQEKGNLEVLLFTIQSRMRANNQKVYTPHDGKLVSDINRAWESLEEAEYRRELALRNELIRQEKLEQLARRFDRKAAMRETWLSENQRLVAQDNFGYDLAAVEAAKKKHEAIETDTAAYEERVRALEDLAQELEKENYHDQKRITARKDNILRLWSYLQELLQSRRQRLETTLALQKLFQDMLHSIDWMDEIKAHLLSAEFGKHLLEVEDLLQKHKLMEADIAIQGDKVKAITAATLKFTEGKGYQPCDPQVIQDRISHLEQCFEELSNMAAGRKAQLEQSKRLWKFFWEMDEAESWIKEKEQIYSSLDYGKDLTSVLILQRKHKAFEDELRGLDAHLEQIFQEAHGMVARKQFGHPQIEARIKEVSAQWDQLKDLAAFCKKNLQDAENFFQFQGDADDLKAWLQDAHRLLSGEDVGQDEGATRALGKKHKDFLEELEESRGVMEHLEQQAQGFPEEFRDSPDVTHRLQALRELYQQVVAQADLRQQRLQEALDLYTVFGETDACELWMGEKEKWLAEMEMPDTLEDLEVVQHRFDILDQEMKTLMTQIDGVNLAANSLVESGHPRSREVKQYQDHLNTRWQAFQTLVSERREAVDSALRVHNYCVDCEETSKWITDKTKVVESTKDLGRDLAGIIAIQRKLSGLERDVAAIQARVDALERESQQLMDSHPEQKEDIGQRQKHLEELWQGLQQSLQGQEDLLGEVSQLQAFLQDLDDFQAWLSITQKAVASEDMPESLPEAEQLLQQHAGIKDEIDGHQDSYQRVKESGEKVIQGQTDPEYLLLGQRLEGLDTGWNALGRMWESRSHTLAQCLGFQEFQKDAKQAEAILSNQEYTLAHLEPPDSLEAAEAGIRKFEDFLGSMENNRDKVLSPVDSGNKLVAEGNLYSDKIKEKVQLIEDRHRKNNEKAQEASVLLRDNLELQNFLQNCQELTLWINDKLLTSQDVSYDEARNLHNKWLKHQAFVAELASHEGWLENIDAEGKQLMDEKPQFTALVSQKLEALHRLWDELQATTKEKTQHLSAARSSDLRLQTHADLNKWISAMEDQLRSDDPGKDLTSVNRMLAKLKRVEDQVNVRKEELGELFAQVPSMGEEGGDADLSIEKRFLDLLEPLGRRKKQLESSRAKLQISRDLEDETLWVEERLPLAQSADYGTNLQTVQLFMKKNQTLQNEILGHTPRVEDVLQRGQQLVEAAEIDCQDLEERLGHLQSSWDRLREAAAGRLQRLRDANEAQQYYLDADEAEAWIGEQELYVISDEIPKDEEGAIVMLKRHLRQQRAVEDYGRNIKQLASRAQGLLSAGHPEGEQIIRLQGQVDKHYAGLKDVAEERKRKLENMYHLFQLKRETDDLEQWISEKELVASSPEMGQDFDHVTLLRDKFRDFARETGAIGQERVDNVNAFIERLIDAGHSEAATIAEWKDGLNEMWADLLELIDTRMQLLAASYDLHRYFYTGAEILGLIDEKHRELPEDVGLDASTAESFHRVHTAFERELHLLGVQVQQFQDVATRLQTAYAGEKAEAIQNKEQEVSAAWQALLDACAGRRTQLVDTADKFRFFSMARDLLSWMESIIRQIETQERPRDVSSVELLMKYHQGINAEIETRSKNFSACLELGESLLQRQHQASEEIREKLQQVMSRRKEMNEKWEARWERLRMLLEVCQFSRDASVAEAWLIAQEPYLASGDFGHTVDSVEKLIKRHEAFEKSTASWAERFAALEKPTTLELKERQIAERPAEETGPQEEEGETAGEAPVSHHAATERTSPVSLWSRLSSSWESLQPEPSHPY

In turn, “His(6)GFP–AnkBD (ankyrin-binding domain of erythrocyte β-spectrin, repeats 14–15) (from UniProt P11277 1-2137) (domain or fragment)” came in with a Kd in assay [1] of 1040 nM.

B1: GST-ZZUDL1340P (ZZUD domain of erythrocyte ankyrin with the spherocytosis-related L1340P substitution) (domain or fragment)
chain: TGFLVSFMVDARGGSMRGSRHNGLRVVIPPRTCAAPTRITCRLVKPQKLSTPPPLAEEEGLASRIIALGPTGAQFLSPVIVEIPHFASHGRGDRELVVLRSENGSVWKEHRSRYGESYLDQILNGMDEELGSLEELEKKRVCRIITTDFPLYFVIMSRLCQDYDTIGPEGGSLKSKLVPLVQATFPENAVTKRVKLALQAQPVPDELVTKLLGNQATFSPIVTVEPRRRKFHRPIGLRIPLPPSWTDNPRDSGEGDTTSLRLLCSVIGGTDQAQWEDITGTTKLVYANECANFTTNVSARFWLSDCPRTAEAVNFATLLYKELTAVPYMAKFVIFAKMNDPREGRLRCYCMTDDKVDKTLEQHENFVEVARSRDIEVLEGMSLFAELSGNLVPVKKAAQQRSFHFQSFRENRLAMPVKVRDSSREPGGSPSFLRKAMKYEDTQHILCHLNITMPPCAKGSGAEDRRRTPTPLALRYSILSESTPGSLSGTEQAEMKMAVISEHLGLSWAELARELQFSVEDINRIRVENPNSLLEQSVALLNLWVIREGQNANMENLYTALQSIDRGEIVNMLEGSGRQSRN
For the molecule B1, in assay [2], the fold decrease in the binding response compared to the WT is 3 fold.
